Assay results: doi:10.1101/421420

Tests used:
[1] = biological target: PmScsCΔLinker (Proteus mirabilis); assay: SAXS
[2] = biological target: PmScsCΔLinker (Proteus mirabilis); assay: crystal structure
[3] = biological target: Proteus mirabilis suppressor of copper sensitivity protein C (PmScsC) (Proteus mirabilis); assay: SAXS

## PmScsCΔLinker (enzyme)
[1]
  Kd: 200 µM
  percent dimer at 0.1 mg/mL: 3%
  percent dimer at 10 mg/ml: 48%
  percent monomer at 0.1 mg/mL: 97%
  percent monomer at 10 mg/ml: 40%
  percent trimer at 10 mg/ml: 12%
[2]
  stoichiometry N: 3

## Proteus mirabilis suppressor of copper sensitivity protein C (PmScsC) (enzyme)
[3]
  percent present as monomer at 0.1 mg/mL: 1%
  stoichiometry N: 3
